Results on one substance are retold here after US20030152571A1.

The target in experiment [1] is human vitronectin receptor αvβ3 purified from human placenta (human) (UniProt P06756). In words: BIAcore, αvβ3 immobilized in a hybrid bilayer membrane on the sensor surface, mAb in solution.
Experiment [2] shares this target. Kind of experiment: competition: 1 ug/ml αvβ3 preincubated with unlabeled antibody, then binding of 1 ug/ml D12.
In experiment [3] the target is rabbit αvβ3 receptor on rabbit smooth muscle cells (rabbit). Kind of experiment: cell-based or functional assay.
The target of experiment [4] is human vitronectin receptor αvβ3 purified from human placenta (human) (UniProt P06756). Kind of experiment: ORIGEN competition: αvβ3-biotin (1 ug/ml) preincubated with unlabeled antibody, then 1 ug/ml Tag-LM609.
Experiment [5] shares this target. In words: BIAcore; immobilized αvβ3, mAb in solution.
For experiment [6] the target is unchanged. Kind of experiment: BIAcore; αvβ3 in a hybrid bilayer membrane on the sensor, mAb at 100, 25, 6 nM in triplicate. Background: Surface plasmon resonance follows binding to a sensor surface in real time, without labels.

In general, koff refers to the rate constant with which the complex falls apart. In general, kon refers to the second-order rate constant of association. Read a low kon as slower complex formation. By % Inhibition is commonly meant how much of the control response was suppressed. Higher therefore signals a strong effect. In general, Kd refers to the equilibrium constant for the complex coming apart. murine monoclonal antibody LM609: in experiment [1], the koff was 0.00051 s⁻¹ and the kon came out at 1.1e+06 M⁻¹ s⁻¹. In experiment [2], this substance registered a % Inhibition at 0.1 ug/ml of 3%, a % Inhibition at 1 ug/ml of 29% and a % Inhibition at 10 ug/ml of 68%. Besides, the Inhib (%) R-SMC (50 mg/ml) in experiment [3] was determined as 43%. In experiment [4], the % Inhibition at 0.1 ug/ml was 3%, the % Inhibition at 1 ug/ml came to 41% and the % Inhibition at 10 ug/ml worked out at 79%. Besides, in experiment [5], the Kd was determined as 3.8 nM. Further, the Kd in experiment [6] came to 0.46 nM.
